Values quoted from earlier work in publication PMC3694163.

Legend:
IR (Homo sapiens) = IR (Homo sapiens) (UniProt P06213)
IGFBP6 (Homo sapiens) = IGFBP6 (Homo sapiens) (UniProt P24592)
Sequence of IGFBP6 (Homo sapiens) (P24592 28-240): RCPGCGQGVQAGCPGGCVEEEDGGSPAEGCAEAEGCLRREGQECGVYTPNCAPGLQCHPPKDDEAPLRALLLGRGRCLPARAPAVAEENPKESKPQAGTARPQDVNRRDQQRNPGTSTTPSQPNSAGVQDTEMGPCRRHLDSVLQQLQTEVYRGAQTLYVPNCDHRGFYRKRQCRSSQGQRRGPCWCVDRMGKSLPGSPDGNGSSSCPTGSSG

Sequence of insulin (P01308 90-110): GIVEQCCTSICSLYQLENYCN

insulin (from UniProt P01308)
Kd (IR (Homo sapiens)): 0.1 nM

IGF-II (from UniProt P01344)
Kd (IGFBP6 (Homo sapiens)): 5.7 nM
